Laboratory results reported in ChEMBL document CHEMBL2074526, “ATP-dependent transport of amphiphilic cations across the hepatocyte canalicular membrane mediated by mdr1 P-glycoprotein” (FEBS Lett, 1994).

Assays:
Format in all cases: functional, cell membranes
[1] = molecular target: Multidrug resistance protein 1a (Rattus norvegicus) (UniProt Q6PSM0); test: (§1) TP_TRANSPORTER: uptake in rat canalicular membrane vesicle
[2] = system: C=C[C@H]1CN2CC[C@H]1C[C@@H]2[C@@H](O)c1ccnc2ccc(OC)cc12; test: as §1
[3] = system: C=CC1C[N+]2(CCCCC)CCC1CC2C(O)c1ccnc2ccc(OC)cc12; test: TP_TRANSPORTER: uptake in rat canalicular plasma membrane vesicles; settings: Canalicular plasma membrane vesicle

Compound	Activity [1]	Km [2]	Km [3]
CCC1C[N+]2(CCCC3(C)N=N3)C3CC45c6ccccc6N(C)C4C2CC1C3C5O (stereo not drawn)	substrate [+]		
Multidrug resistance protein 1a (Rattus norvegicus), Q6PSM0		5 µM	0.4 µM
